The text below walks through data of the supplement of paper PMC7125110.

± gives the standard error. For part of these data: Variants at the floor of the assay were thinned out. Bounds are passed on as bounds.

Sequences and labels used below:
B1: glmS ribozyme (parent)
chain: AUAAAAGCGCCAGAACUACAGAAAUGUAGUUGACGAGGAGGAGGUUUAUCGAAUUUUCGGCGGAUGCCUCCAAA

Details in all cases: with glucosamine-6-phosphate
In data set [1] the parent is B1. Description: kcat; higher = faster cleavage; RNA array. The essentials:
(§1)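 Barcoded ribozyme variants were transcribed in situ on sequenced MiSeq chips by E. coli RNA polymerase. At 37 °C, a hybridised Cy3 probe tracked them while glucosamine-6-phosphate (40 μM to 10 mM) in HEPES/KCl/Mg(OAc)2 buffer flowed in and tiles were imaged over ~14 h. Per-tile medians of signals normalised to baseline and to non-cleaving reference variants were fit to one- or two-exponential decays, giving kobs. kcat and KM came from weighted Michaelis–Menten fits across concentrations.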

In data set [2] the parent is B1. Description: self-cleavage kobs at 160 uM GlcN6P; higher = faster cleavage; RNA array. An outline of the steps:
as §1

In data set [3] the parent is B1. Description: self-cleavage kobs at 640 uM GlcN6P; higher = faster cleavage; RNA array. An outline of the steps:
as §1

Data set [4] covers variants of B1. Description: self-cleavage kobs at 40 uM GlcN6P; higher = faster cleavage; RNA array. An outline of the steps: as §1
In data set [5] the parent is B1. Description: self-cleavage kobs at 2500 uM GlcN6P; higher = faster cleavage; RNA array. The essentials:
as §1

In data set [6] the parent is B1. Description: self-cleavage kobs at 10000 uM GlcN6P; higher = faster cleavage; RNA array. The essentials: as §1
The variants in data set [7] derive from B1. Put plainly: KM; higher = weaker cofactor use; RNA array. The essentials:
as §1

In general, kcat refers to the number of substrate molecules converted per active site and unit of time at saturation. By KM is commonly meant the substrate concentration at which the rate is half of its maximum.

On to AUAAAAGCGCCAGAACUACAGAAAUGUAGUUUCCGAGGAGGAGGUUUAUCGAAUUUUCGGCGGAUGCCUCCAAA [G32U A33C], for which the kcat with glucosamine-6-phosphate [1] was less than 1e-05 s⁻¹. Moreover, the “self-cleavage kobs at 160 uM GlcN6P” value in the data set with glucosamine-6-phosphate [2] was less than 1e-05 s⁻¹. The “self-cleavage kobs at 640 uM GlcN6P” value with glucosamine-6-phosphate [3] is less than 1e-05 s⁻¹.

Take AUAAAAGCGCCAGAACUACAGAAAUGUAGUUGUCGAGGAGGAGGUUUAUCGAAAUUUCGGCGGAUGCAUCCAAA [A33U U54A C68A]: in the data set with glucosamine-6-phosphate [1], the catalytic constant (kcat) came to 2.8e-05 ± 3.4e-06 s⁻¹.

With AUAAAAGCGCCAGAGCUACAGAAAUGUAGUGGACGAGGUGGAGGUUUAUCGAAUUUUCGGCGGAUGCCUCCAAA [A15G U31G A39U], the kcat in the data set with glucosamine-6-phosphate [1] was 0.00331 ± 0.0014 s⁻¹. Besides, the “self-cleavage kobs at 40 uM GlcN6P” value with glucosamine-6-phosphate [4] was 3.3e-05 ± 1.1e-05 s⁻¹. The “self-cleavage kobs at 160 uM GlcN6P” value with glucosamine-6-phosphate [2] turned out to be 0.000104 ± 1.8e-05 s⁻¹. Besides, the “self-cleavage kobs at 640 uM GlcN6P” value with glucosamine-6-phosphate [3] amounted to 0.000575 ± 0.00013 s⁻¹. Further, the “self-cleavage kobs at 2500 uM GlcN6P” value with glucosamine-6-phosphate [5] was found to be 0.000869 ± 0.00014 s⁻¹. For the same variant, the “self-cleavage kobs at 10000 uM GlcN6P” value with glucosamine-6-phosphate [6] amounted to 0.00265 ± 0.00042 s⁻¹.

In the case of AUAAAAGCGCCAGAACUACAGAAAUGUAGUUGACGAGGAGGAGGUUUAUAGAAGUUUCGGCGGAUGCCUCCAAA [C50A U54G], the catalytic constant (kcat) with glucosamine-6-phosphate [1] worked out at 2.18e-05 ± 1.9e-06 s⁻¹.

On to AUAAAAGCGCCAGAACUACAGAAAUGUAGUUGACGAGGAUGAGGUUUAUCGAAUCUUCGGCGGAUGCCUCCAAA [G40U U55C], for which, in the data set with glucosamine-6-phosphate [1], the kcat came to 0.000228 ± 3.6e-06 s⁻¹. Further, in the data set with glucosamine-6-phosphate [7], the KM stood at 6.81 ± 0.24 mM. Moreover, the “self-cleavage kobs at 10000 uM GlcN6P” value in the data set with glucosamine-6-phosphate [6] was found to be 0.000135 ± 1.7e-05 s⁻¹.

For AUAAAAGCGCCAGAACUACAGAAAUGUAGUGGACGAGGAGGAGGUUUAUCGAUUUUUCGGCGGAUGCCUCCAAA [U31G A53U], the kcat in the data set with glucosamine-6-phosphate [1] was 0.019 ± 0.0084 s⁻¹. Also, the “self-cleavage kobs at 40 uM GlcN6P” value in the data set with glucosamine-6-phosphate [4] was 0.000188 ± 3e-05 s⁻¹. The “self-cleavage kobs at 640 uM GlcN6P” value with glucosamine-6-phosphate [3] was 0.00281 ± 0.00087 s⁻¹. The “self-cleavage kobs at 2500 uM GlcN6P” value with glucosamine-6-phosphate [5] was determined as 0.00587 ± 0.002 s⁻¹. Moreover, the “self-cleavage kobs at 10000 uM GlcN6P” value with glucosamine-6-phosphate [6] worked out at 0.0128 ± 0.0024 s⁻¹.

AUAAAAGCGCCAGAAGUACAGAAAUGUAGUUGACGAGGAGGAGGUUUAUCGAAUAUUCGGCGGAUGCCUCCAAA [C16G U55A]: the kcat in the data set with glucosamine-6-phosphate [1] amounted to 0.00566 ± 0.0022 s⁻¹. Moreover, in the data set with glucosamine-6-phosphate [4], the “self-cleavage kobs at 40 uM GlcN6P” value amounted to 0.00015 ± 1.9e-05 s⁻¹. Moreover, the “self-cleavage kobs at 160 uM GlcN6P” value with glucosamine-6-phosphate [2] is 0.000313 ± 6.3e-05 s⁻¹. Also, the “self-cleavage kobs at 640 uM GlcN6P” value in the data set with glucosamine-6-phosphate [3] was found to be 0.000819 ± 0.00014 s⁻¹. For the same variant, in the data set with glucosamine-6-phosphate [5], the “self-cleavage kobs at 2500 uM GlcN6P” value amounted to 0.00327 ± 0.00047 s⁻¹. Further, the “self-cleavage kobs at 10000 uM GlcN6P” value with glucosamine-6-phosphate [6] was 0.00463 ± 0.00062 s⁻¹.

Take AUAAAAGCGCCAGAACUACAGAAAUGUAGUUGACGAGGAGGAGGUUUAUCGAACUUUCGGCGGCUGCCUCCAAA [U54C A64C]: in the data set with glucosamine-6-phosphate [1], the turnover number (kcat) was found to be 0.000257 ± 3.3e-05 s⁻¹. Also, in the data set with glucosamine-6-phosphate [7], the KM was 3.56 ± 1 mM. Moreover, the “self-cleavage kobs at 640 uM GlcN6P” value with glucosamine-6-phosphate [3] was found to be 3.19e-05 ± 1e-05 s⁻¹. Also, the “self-cleavage kobs at 2500 uM GlcN6P” value with glucosamine-6-phosphate [5] was 0.000124 ± 2e-05 s⁻¹. Besides, the “self-cleavage kobs at 10000 uM GlcN6P” value with glucosamine-6-phosphate [6] is 0.000185 ± 2.1e-05 s⁻¹.

Turning to AUAAAAGCGCCAGAACUACAGAAAUGUAGUUGACGAGAAGGAGGUUUAUCGAAUUUUCGGCUGAUGCCUCCAAA [G38A G62U], in the data set with glucosamine-6-phosphate [1], the turnover number (kcat) is less than 1e-05 s⁻¹. In addition, the “self-cleavage kobs at 640 uM GlcN6P” value with glucosamine-6-phosphate [3] was less than 1e-05 s⁻¹.

Turning to AUAAAAGCGCCAGCACUACAGAAAUGUAGUCGACGAGGAGGAGGUUUAUCGAAUUUUCGGCGGAUGCCUCCAAA [A14C U31C], the catalytic constant (kcat) in the data set with glucosamine-6-phosphate [1] came out at 0.00408 ± 0.0011 s⁻¹. Also, the KM with glucosamine-6-phosphate [7] worked out at 2.33 ± 0.86 mM. The “self-cleavage kobs at 40 uM GlcN6P” value with glucosamine-6-phosphate [4] worked out at 8.42e-05 ± 1.1e-05 s⁻¹. Further, in the data set with glucosamine-6-phosphate [2], the “self-cleavage kobs at 160 uM GlcN6P” value came to 0.000307 ± 4.3e-05 s⁻¹. Also, in the data set with glucosamine-6-phosphate [3], the “self-cleavage kobs at 640 uM GlcN6P” value came out at 0.000748 ± 9e-05 s⁻¹. The “self-cleavage kobs at 2500 uM GlcN6P” value in the data set with glucosamine-6-phosphate [5] was determined as 0.00178 ± 0.00024 s⁻¹. For the same variant, the “self-cleavage kobs at 10000 uM GlcN6P” value with glucosamine-6-phosphate [6] worked out at 0.00399 ± 0.00045 s⁻¹.
